Source: article PMC314469, “Protein Interaction Networks by Proteome Peptide Scanning” (PLoS Biology, 2004)

T1: Abp1 SH3 (ABP1_YEAST), P15891
T1 chain: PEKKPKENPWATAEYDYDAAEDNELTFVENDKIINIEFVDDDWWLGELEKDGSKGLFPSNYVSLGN


Target: T1, Abp1 SH3 (ABP1_YEAST), P15891
Experiment: SPOT array

Row | Binder | normalised SPOT signal, Boehringer light units (BLU); mean over the file's lines of this peptide
1 | HPEYTSKVLEPSRP [YJR103W 537-550] | 91.6
2 | HNTSSSIPKISRP [YGR014W 1282-1294] | 765
3 | HTDDLPEGIRPFKP [YLR090W 428-441] | 61
4 | IATSADYIFIPEKP [YMR205C 403-416] | 90.5
5 | IAVGLDALNIPHKP [YHR033W 54-67] | 142
6 | IDFFLALFSDPARP [YHL005C 58-71] | 21.9
7 | HYDVDANIMPPPKP [YBR108W 510-523] | 108
8 | IDLVKHSPGAIKP [YHL030W 1303-1315] | 84.8
9 | HTMTSPPPVFNKP [YDL195W 1091-1103] | 1200
10 | HVDEDGEPIDIKP [YLR429W 120-132] | 202
11 | HVPIVKRNKYPPRP [YDR195W 518-531] | 267
12 | IAIEREEDSIPSRP [YMR221C 251-264] | 99.1
13 | IDILGLAELAPGKP [YLR304C 721-734] | 124

Next, values leading:

Row | normalised SPOT signal, Boehringer light units (BLU); mean over the file's lines of this peptide | Binder
14 | 419 | HYAKNRTPGVMKP [YLR244C 308-320]
15 | 105 | HVNLDKGKHVPSKP [YKL054C 142-155]
16 | 176 | HYPPGYDPTDPNRP [YER166W 1422-1435]
17 | 194 | HSAIQSLSFHPSKP [YJL069C 248-261]
18 | 639 | IDIPVRQPYSKKP [YDR422C 269-281]
19 | 129 | HTEQNNPPKPQKP [YOR290C 412-424]
20 | 197 | IAHFNYLPPTIRP [YKR099W 624-636]
21 | 69.3 | HPEYTSKVLDPSKP [YBL039C 535-548]
22 | 80.8 | HSAATALPALRRP [YLR162W 19-31]
23 | 29 | IAVISVLPNFKKP [YBL004W 947-959]
